Assay results from the DeepSol protein solubility set.

Test: soluble on expression in E. coli; label from the status in PepcDB or PDB records

Sequence | soluble on expression in E. coli
SASNYPAYMDNYLKEVINQVEEETGYNLLTTGMDVYTNVDQEAQKHLWDIYNTDEYVAYPDDELQVASTIVDVSNGKVIAQLGARHQSSNVSFGINQAVETNRDWGSTMKPITDYAPALEYGVYDSTATIVHDEPYNYPGTNTPVYNWDRGYFGNITLQYALQQSRNVPAVETLNKVGLNRAKTFLNGLGIDYPSIHYSNAISSNTTESDKKYGASSEKMAAAYAAFANGGTYYKPMYIHKVVFSDGSEKEFSNVGTRAMKETTAYMMTDMMKTVLSYGTGQNAYLAWLPQAGKTGTSNYTDEEIENHIKTSQFVAPDELFAGYTRKYSMAVWTGYSNRLTPLVGNGLTVAAKVYRSMMTYLSEGSNPEDWNIPEGLYRNGEFVFKNGAR | soluble
SASSDLEQLCSHVNEKIGNIKKTLSLRNCGQEPTLKTVLNKIGDEIIVINELLNKLELEIQYQEQTNNSLKELCESLEEDYKDIEHLKENVPSHLPQVTVTQSCVKGSDLDPEEPIKVEEPEPVKKPPKEQRSIKEMPFITCDEFNGVPSYMKSRLTYNQINDVIKEINKAVISKYKILHQPKKSMNSVTRNLYHRFIDEETKDTKGRYFIVEADIKEFTTLKADKKFHVLLNILRHCRRLSEVRGGGLTRYVIT | soluble
SATLLHDAVMNPAEVVKQRLQMYNSQHQSAFSCIRTVWRTEGLGAFYRSYTTQLTMNIPFQSIHFITYEFLQEQVNPRRDYNPQSHIISGGLAGALAAAATTPLDVCKTLLNTQENMALSLANVSGRLSGMANAFRTVYQLNGLAGYFKGIQARVIYQMPSTAISWSVYEFFKYILTKRQLENRTLY | soluble
SDAILNYRPEGSEDYYALLGCDELSSVEQILAEFKIRALECHPDKHPENSKAVETFQKLQKAKEILCNAESRARYDHWRRSQMSMPFEQWEALADSVKTSMHWAVRSKKDLMLEGSGQTFTSSVPNKERSEQRETKKGDPDSNPEKMKQKEPKFPEEGISPQNPDSPGLSDLNCGHLRFRWSGDAPSELLRKFRNYEI | soluble
SDPEISEQDEEKKKYTSVCVGREEDIRKSERMTAVVHDREVVIFYHKGEYHAMDIRCYHSGGPLHLGEIEDFNGQSCIVCPWHKYKITLATGEGLYQSINPKDPSAKPKWCSKGVKQRIHTVKVDNGNIYVTLSKEPFKCDSDYYATGEFKVIQSSS | soluble
SDTGVIEGGLNVTLTIRLLMHGKEVGSIIGKKGESVKKMREESGARINISEGNCPERIITLAGPTNAIFKAFAMIIDKLEEDISSSMTNSTAASRPPVTLRLVVPASQCGSLIGKGGCKIKEIRESTGAQVQVAGDMLPNSTERAITIAGIPQSIIECVKQICVVMLETLSQSPPKGVTIPYRPKPSSSPVIFAGGQDRYSTGSDSASFPHTTPSMCLNPDLEGPPLEAYTIQGQYAIPQPDLTKLHQLAMQQSHFPMTHGNTGFSGIESSSPEVKGYWAGLDASAQTTSHELTIPNDLIGCIIGRQGAKINEIRQMSGAQIKIANPVEGSTDRQVTITGSAASISLAQYLINVRLSSETGGMGSS | soluble
SEDNQRSRFRKICVFCGSHSGHREVFSDAAIELGNELVKRKIDLVYGGGSVGLMGLISRRVYEGGLHVLGIIPKALMPIEISGETVGDVRVVADMHERKAAMAQEAEAFIALPGGYGTMEELLEMITWSQLGIHKKTVGLLNVDGYYNNLLALFDTGVEEGFIKPGARNIVVSAPTAKELMEKMEEYTPSHMHVASHESWKVEELGDYPGQENKPQ | soluble
SEEDAGNGGFRKRMRASDEEGKGDSRDGISLDHTIENEEAETKLVASDEMELSIAQILDKIESFTQTVSNLLETGKTMLKELSNEFEERLIMIHKEHVEKWQDEIKELRLLDASNEETTSLLHNARYLIQNPSIEQ | soluble
SESLVVCDVAEDLVEKLRKFRFRKETHNAAIIMKIDKDERLVVLDEELEGVSPDELKDELPERQPRFIVYSYKYQHDDGRVSYPLCFIFSSPVGCKPEQQMMYAGSKNKLVQTAELTKVFEIRNTEDLTEEWLREKLG | soluble
SFAKTGQLFNQTHLEEKKEIAQKAIQFIQEGDSIILDSGSTTTEIAKLLMNYKDLTVITNALNIALILGENHGINLIVTGGEFKAPTLSLTGKMAADSFKDIRANKLFLATAGISSDMKLTYPSLSDLVVKSAMIESASKVYLVADCSKI | not soluble
SFPGDYDNYLLEKEEMLRVEEMQNAEFDKKLAQEEVWIRQGIKARRTRNEGRVRALKKLREERRDRREVQGKVNLNIDDASRSGKIVF | not soluble
SFREQDIYLPIANVARIMKNAIPQTGKIAKDAKECVQECVSEFISFITSEASERCHQEKRKTINGEDILFAMSTLGFDSYVEPLKLYLQKFRE | soluble
